The values that follow come from the DeepSol protein solubility set.

A short description of this data set: soluble on expression in E. coli; label from the status in PepcDB or PDB records.
In the case of “MGSDKIHHHHHHMARETQCNRQTDCAQCPKATEGILVHRKFPKGQHFPPDKCTQNCILFILQGELLVNSEEYPGTTLREGQFILQSIGSKLELLALTDVNYVVYWFNEPPLICEQRYHEILQQSEAPLTYTPLVMTQRITNFMKDICDYLDEQMPCGAFIDLKCQELMYLIICYYPIPQLSKFFYPISSYTESFQYFVMQNYEKVKNVEEFAHLGGYTTTTFRRLFKNMYGVPVYEWILSKKREGILEDLQHTKQRITEISNRYGFDSLSHFAHFCKASFGDSPRALRTRAARGEKITALKTE”, the “soluble on expression in E. coli” value is listed as “not soluble”.

With “MSARKLFYLGPQGTFTHQAAVNAAQELARFEPQGFDLMPMDDVPQILDAAQHGDGWGIVAWENNVEGYVVPNLDALIDAKDLVGFARVGVNVEFDAYVAQGADPAEARIATAHPHGLAQCKRFIAEHRLSTQPATSNAAACRDLIPGEIAFGPAICGELYDITRIGTAIQDYQGAATDFLVLSPRAE”, the “soluble on expression in E. coli” value is recorded as “not soluble”.

On to “RELIHFAHGNGFPSLCYKQLLEQLETRFDCCFIDKIGHDPDYPVGENWHNLVAEIIASIKRQAEQPVIAVGHSLGGVLSLLAAIEQPKLFKAVIMLDSPLIGAFKSSMVRLAKALGIIDRVTPAFRTKKRREHWQNYEQLISYLKTRDLFKTFTEECLNDYIKYGLQYKEDGYYLRFDRHVEYQIYRTIPHVIPRYKGKLIVPAALIYGDKSTVVDRMDIRYMKNHFNVKCFKTMGTHLFPMEHPKAVGKQVIEVIDAII”, for which the “soluble on expression in E. coli” value is “not soluble”.

In the case of “MEAPEFKDFAKTMVDFIAEYLENIRERRVLPEVKPGYLKPLIPDAAPEKPEKWQDVMQDIERVIMPGVTHWHSPKFHAYFPTANSYPAIVADMLSGAIACIGFTWIASPACTELEVVMMDWLGKMLELPAEFLACSGGKGGGVIQGTASESTLVALLGAKAKKLKEVKELHPEWDEHTILGKLVGYCSDQAHSSVERAGLLGGVKLRSVQSENHRMRGAALEKAIEQDVAEGLIPFYAVVTLGTTNSCAFDYLDECGPVGNKHNLWIHVDAAYAGSAFICPEYRHLMKGIESADSFNFNPHKWMLVNFDCSAMWLKDPSWVVNAFNVDPLYLKHDMQGSAPDYRHWQIPLGRRFRALKLWFVLRLYGVENLQAHIRRHCNFAKQFGDLCVADSRFELAAEINMGLVCFRLKGSNERNEALLKRINGRGHIHLVPAKIKDVYFLRMAICSRFTQSEDMEYSWKEVSAAADEMEQEQ”, the “soluble on expression in E. coli” value is listed as “soluble”.

Turning to “YKEFKLKRVYYSGYIPINHEDHALPAVGSAPPLLRENRLYQSDWLMRFYGFAADEIVNPQHPNLDLDVDPKLGWALRHPEQFPVDINRADYRMILRVPGIGVRSAKKIMHARRFGALRIDQLKRMGVAYSRAQHFIYCID”, the “soluble on expression in E. coli” value was “not soluble”.

As to “MKGERLDKVLARLGLGSRKEVARLVRQGKVRVLGQVVKDPGFRVPEGAALEVEGRPLEVRRHLHVLLHKPPGFVTSRTEGPSVYALLQGFPTRDLSPVGRLDKDAEGLLLFTTDGLLLHRLTHPRHKVAKRYLVHLERPVGPKDQEAFREGILLDGKKTLPAELTPLEDPTWAEVVLKEGRFHQIKRMFRARGNRVLRLKRLALGPLELGDLPPGKARPLTEAEEKALYAAVGLGGEDPEDEV”, the “soluble on expression in E. coli” value is listed as “soluble”.

For the sequence “KCPRCGKSVYAAEKVMGGGKPWHKTCFRCAICGKSLESTNVTDKDGELYCKVCYAKNF”, the “soluble on expression in E. coli” value is listed as “soluble”.

Regarding “MGHHHHHHSHTVCSLSSGKFGTLLSGSWDTTAKVWLNDKCMMTLQGHTAAVWAVKILPEQGLMLTGSADKTVKLWKAGRCERTFSGHEDCVRGLAILSETEFLSCANDASIRRWQITGECLEVYYGHTNYIYSISVFPNCRDFVTTAEDRSLRIWKHGECAQTIRLPAQSIWCCCVLDNGDIVVGASDGIIRVFTESEDRTASAEEIKAFEKELSHATIDSKTGDLGDINAEQLPGREHLNEPGTREGQTRLIRDGEKVEAYQWSVSEGRWIKIGDVVGS”, the “soluble on expression in E. coli” value is “not soluble”.

Turning to “MVGQIAKEMGLRAYIVGGVVRDILLGKEVWDVDFVVEGNAIELAKELARRHGVNVHPFPEFGTAHLKIGKLKLEFATARRETYPRPGAYPKVEPASLKEDLIRRDFTINAMAISVNLEDYGTLIDYFGGLRDLKDKVIRVLHPVSFIEDPVRILRALRFAGRLNFKLSRSTEKLLKQAVNLGLLKEAPRGRLINEIKLALREDRFLEILELYRKYRVLEEIIEGFQWNEKVLQKLYALRKVVDWHALEFSEERIDYGWLYLLILISNLDYERGKHFLEEMSAPSWVRETYKFMKFKLGSLKEELKKAKENYEVYRLLKPLHTSVLLLLMLEEELKEKIKLYLEKLRKVKLPKEKIEELKKQGLKGKELGERIEELKREIMNKIKLAAALE”, the “soluble on expression in E. coli” value is reported as “soluble”.

Turning to “MSLSEYQDLSQQIELIATAEESEQTHLLGEMVENGLDEGSIALILEAFPVEQRVRLWRSLPLEMHIDVLTEMRAEVRISVINALSEIELKLTLAKLDNLSLIEWEDSLPDDIISEALSLINRDELELYDQANEFADDEIGHWADRKVYTLPFSISVRRAKVLLDKYHYDSPQYIYLINKAKKFRGLVSFSDVLQAEETTQLKNLRMEELVTLNAKQTLSDAVDALEHTTLPIVPVLSDDETLIGEIDWHFALSVQREMYEARLMAGTGMDEGDDLFAPVIKSEGHHHHHH”, the “soluble on expression in E. coli” value is on record as “soluble”.

With “MAIKGPRKHLKRLAAPANWQLPRKVKTFTVRPSPGPHSMDKSLPLLLVVRDVLKYADNAREAKKIIQTGKILIDGLKRKEYKHPAGLMDVLSIPEMDETYLVLFDESGRISLKKTDKTDVKLCKIVNKTVVKGGNIQLNLHDGRNQIVKVSDAAKAEEDVYKTGDSVLISIPEQSIAGHVAFGEGKLAYITGGKHVGEFAKIVEVENRALYSDIVTLENKDGEKFKTVKPYVFIVGQDEPVISMLEHHHHHH”, the “soluble on expression in E. coli” value is given as “soluble”.

Consider “EPIVTVYVAYGGLDLIAEEFEKDTGIKMEYVSLSSGEALSRLKAEQSNPSADVWLGGGIDAFISAQNDGLLEAYKSPNAEEIDPLFVEENGYWIGVSLVTIGILENTDLMTEKGLPEPETWDDLITEDYSGELIASNPTVSGTAYFTICGILQMNGEEEGWNYLDKFYQNTPFLTKRGSGPGNLVTAGEYAYGVAPDPHTTLIANSELPVKSVFLDNVIWWPSPVSIVNGAKHPENAKIFVDWCLSKEGQEVLMQASPRVPVRGDI”, for which the “soluble on expression in E. coli” value is reported as “not soluble”.

On to “MPSLQDLYAAFRRIAPYTHRTPLLTSRLLDGLLGKRLLLKAEHLQKTGSFKARGALSKALALENPKGLLAVSSGNHAQGVAYAAQVLGVKALVVMPEDASPYKKACARAYGAEVVDRGVTAKNREEVARALQEETGYALIHPFDDPLVIAGQGTAGLELLAQAGRMGVFPGAVLAPVGGGGLLAGLATAVKALSPTTLVLGVEPEAADDAKRSLEAGRILRLEAPPRTRADGVRTLSLGERTFPILRERVDGILTVSEEALLEAERLLFTRTKQVVEPTGALPLAAVLEHGARLPQTLALLLSGGNRDFSP”, for which the “soluble on expression in E. coli” value is “soluble”.

In the case of “MDGRPLNRTTRAVAMIAVTIPAHNEQALIGPCLQSIRVAAQHPALQGEAVEIHVALDRCTDQTGVIARAHGAITQEVCGGVGVARAAAASAAIARGAHWLACTDADTRVPPDWLMAQLACAADAFCGVVEVTDWRDHLSQTRAAFLASEIRHDGHPHVHGANLGMRTSAYLAAGGFSNASSSEDVALVAALEQAGMRIARLASPVVNTSARRSARASGGFADYLLRLEAALLAASPSLGLEHHHHHH”, the “soluble on expression in E. coli” value is reported as “not soluble”.

Regarding “MSLEEQREILEQLKKTLQMLTVEPSKNNQIANEEKEKKENENSWCILEHNYEDIAQEFIDFIYKNPTTYHVVSFFAELLDKHNFKYLSEKSNWQDSIGEDGGKFYTIRNGTNLSAFILGKNWRAEKGVGVIGSHVDALTVKLKPVSFKDTAEGYGRIAVAPYGGTLNELWLDRDLGIGGRLLYKKKGTNEIKSALVDSTPLPVCRIPSLAPHFGKPAEGPFDKEDQTIPVIGFPSPDEEGNEPPTDDEKKSPLFGKHCIHLLRYVAKLAGVEVSELIQMDLDLFDVQKGTIGGIGKHFLFAPRLDDRLCSFAAMIALICYAKDVDTEESELFSTVTLYDNEEIGSLTRQGAKGGLLESVVERSSSAFTKKAVDLHTVWANSIILSADVNHLYNPNFPEVYLKNHFPVPNVGITLSLDPNGHMATDVVGTALVEELARRNGDKVQYFQIKNNSRSGGTIGPSLASQTGARTIDLGIAQLSMHSIRAATGSKDVGLGVKFFNGFFKHWRSVYDEFGELEGHHHHHH”, the “soluble on expression in E. coli” value was “soluble”.

As to “MGSDKIHHHHHHMNPCGFNKCYIQPSADLSVSLQIVSGKSRASISEIGSHMDSLQIDGLDILLHSYDGSPTHFGSAFLFPYANRVKDARYVMDGVEYRLPNNEGKNSIHGLVLDKNFSVISREEESITMETSIAGGEAYPSDLSVRISHSVDETSYRCEVTVINKGVKRSPIAAGFHPYFVYKNKWAIIKPETAWIMEYDGPFPTGKMDRMTFGDISYLNAYDNQFFADSDIIVDVGYSRLKITRNNMPFFVIYNGRYSAGSSVAIEPMMSAVDSFNNGIGLRLLNPGDTMKFGYSIDIV”, the “soluble on expression in E. coli” value is listed as “not soluble”.

Consider “GSHMVLTKKKLQDLVREVDPNEQLDEDVEEMLLQIADDFIESVVTAACQLARHRKSSTLEVKDVQLHLERQWNMWI”, for which the “soluble on expression in E. coli” value is reported as “soluble”.

Consider “MNTNVTTNKSVQAAKNTGRVKPQKLADIILAQLEGMIIEGSLQPGEKLLPERELALQFEVSRPSLREAIQKLEAKGLVTRKQGGGTFVCNNLLSGFSDPLFELMSNNNESQFDLLEFRHGIEGMASYYAAMRGTPADFEQIQAKHNEIGNSQLEDDFRGEAEAVVEFHLAICAASHNAVILQLARSMSSLLADNIAQNLTVLAKRPDIFSKITDYRKRLLDAILSGQPQKAWGASHRHLAFIEEVLLKSTQENSRMERSMRRM”, for which the “soluble on expression in E. coli” value was “not soluble”.

Consider “MSLGAKPFGEKKFIEIKGRRMAYIDEGTGDPILFQHGNPTSSYLWRNIMPHCAGLGRLIACDLIGMGDSDKLDPSGPERYAYAEHRDYLDALWEALDLGDRVVLVVHDWGSALGFDWARRHRERVQGIAYMEAIAMPIEWADFPEQDRDLFQAFRSQAGEELVLQDNVFVEQVLPGLILRPLSEAEMAAYREPFLAAGEARRPTLSWPRQIPIAGTPADVVAIARDYAGWLSESPIPKLFINAEPGALTTGRMRDFCRTWPNQTEITVAGAHFIQEDSPDEIGAAIAAFVRRLRPAHHHHHH”, for which the “soluble on expression in E. coli” value is recorded as “soluble”.

“MASNMDREMILADFQACTGIENIDEAITLLEQNNWDLVAAINGVIPQENGILQSEYGGETIPGPAFNPASHPASAPTSSSSSAFRPVMPSRQIVERQPRMLDFRVEYRDRNVDVVLEDTCTVGEIKQILENELQIPVSKMLLKGWKTGDVEDSTVLKSLHLPKNNSLYVLTPDLPPPSSSSHAGALQESLNQNFMLIITHREVQREYNLNFSGSSTIQEVKRNVYDLTSIPVRHQLWEGWPTSATDDSMCLAESGLSYPCHRLTVGRRSSPAQTREQSEEQITDVHMVSDSDGDDFEDATEFGVDDGEVFGMASSALRKSPMMPENAENEGDALLQFTAEFSSRYGDCHPVFFIGSLEAAFQEAFYVKARDRKLLAIYLHHDESVLTNVFCSQMLCAESIVSYLSQNFITWAWDLTKDSNRARFLTMCNRHFGSVVAQTIRTQKTDQFPLFLIIMGKRSSNEVLNVIQGNTTVDELMMRLMAAMEIFTAQQQEDIKDEDEREARENVKREQDEAYRLSLEADRAKREAHEREMAEQFRLEQIRKEQEEEREAIRLSLEQALPPEPKEENAEPVSKLRIRTPSGEFLERRFLASNKLQIVFDFVASKGFPWDEYKLLSTFPRRDVTQLDPNKSLLEVKLFPQETLFLEAKE”: the “soluble on expression in E. coli” value is listed as “soluble”.
